# Assay: label from the status in PepcDB records
row,Sequence,protein production
1,MTAHWRYLNSLQPLSNLFIQAALRRKVTGTQLPDLGLRSWIAVDNDKLEAYRKVCGFADSSLLPPTYPHALAFTLQMQLMTSPEFPFPLLGLIHLGNQIRTLRPLGGVSQLYISVQATDLRPHPKGATFTLLTQAEDGMGLLWEEESTLLCTAVHLEDAPVPMPEAYLRPLIELDRWRASAQIGREYAKVSGDYNPIHLSAASAKLFGFPRAIAHGMWLKARALAALEDHLPASNVQISVQFQKPVRLPADVTLSASAAGSHGEFRVEGQEGIVHMIGSWQPATD,failed
2,HYTPKSLTEAIVAETLTPLTYFGPVEGSACKEWTLKTPAELLDLKICDPAMGSGAFLVQACRWLADRLVEAWAQAEIKGKIINVDGNVLDDLSSNELMPHDIDARINIARYLIAERCLYGIDLNPLAVELAKLSIWLVTLAKGRPFGFLDHSLRCGDSLLGIHQVNQLIELSVLTNSDDQDTLFSKDIRKAIYDASKLRQRLREMPIGDIHDIEEMERLNTEAHKRLYKAKKIADALVGEIFATGANFSAREARLKMLSLKLKESVEEDENIFMEISYQGTVKLQQELPSGRSKRIPIHWPLEFPEVFIRTCSGFDAIIGNPPFLGGRKITGVFGNLYREYLVANIAKGERGSSADLVAYFFLRSFYLLRESGCLGLIAVNSIAEGDSRQIGLERLLQSGAQIFSATPNEPWPGKAAVVTSRIHLIKGAFFGEKLLNGKKVAIISAFLSDQNEWSPKILKENLGQS,failed
3,MIVMSKNVDEAISRKEEKCIMSFIPNMITIANFVCGLLAIYAVFVHDIYLGAVFIITGMLFDFFDGMVARKLDSVSEIGGELDSFADLVTFGVAPSILAYSASLKDLQSIGMICALTYSICGMLRLARFNTQQSKLPTFIGMPIPFAAMCLLILCFLKNPVSVAFGTCVLAYLMVSKIKFPHFKKDIAESLKPGRLD,failed
4,MYGGIYVNNGYSPMSSNQQNVSVEHDIIMRGRRVIDITGVKQVESFDSEEFLLETVMGFLTIRGQNLQMKNLDVEKGVVSIKGKVHEMLYIDENQGEKTKGFFSKLFKLEHHHHHH,not failed
5,PLQFHSVHGDNIRISRDGTLARRFESFCRAITFSARPVRINERICVKFAEISNNWNGGIRFGFTSNDPVTLEGTLPKYACPDLTNRPGFWAKALHEQYCEKDNILYYYVNGAGDVIYGINNEEKGVILTGIDTRSLLWTVIDIYGNCTGIEFLDSRIYMYQ,not failed
6,MKQAIGFIDSGVGGLTVVREVLKQLPHEQVYYLGDTARCPYGPRDKEEVAKFTWEMTNFLVDRGIKMLVIACNTATAAALYDIREKLDIPVIGVIQPGSRAALKATRNNKIGVLGTLGTVESMAYPTALKGLNRRVEVDSLACPKFVSVVESGEYKSAIAKKVVAESLLPLKSTKIDTVILGCTHYPLLKPIIENFMGDGVAVINSGEETASEVSALLDYHNLLDATDEEIEHRFFTTGSTQIFKDIAKDWLNMPDMTVEHIKLGK,not failed
7,PFKESQARGLLQDNMANSYNGGDFEDGLLNLSKEVFPTDKYLYQDGQFLDKKTINAYLNPKYTKREIDKMSEKDKKDKKANENLGLNPSHEGETNPEKIAEKSPAYLSNILEQDFYGGGDTKGKNIKGMTIGLAMNSVYYYKKEKDGPTFSKKLDDSEVKKQGKQMASEILSRLRENDDLKDIPIHFAIYKQSSEDSITPGEFITQATAEKSQTKLNEWHNINEKSALLPSSTAADYDENLNNNFKQFNDNLQSYFSNFTQAVGKVKFVDKKPQRLVVDLPIDYYGQAETIGITQYVTEQANKYFDKIDNYEIRIKDGNQPRALISKTKDDKEPQVHIYSN,not failed
8,MKVFDVHKFDMKKEQDFLQVQFNLKNRINLSPTIHPDSINTGAGVDLAYWEQDGEPYGVCCIIVIDADTKEVIEKVHSMGRISVPYVSGFLAFRELPLIIEAAKKLETEPDVFLFDGNGYLHYNHMGVATHAAFFLGKPTIGIAKTYLKIKGCDFVTPEIEVGAYTDIIIDGEVYGRALRTRRDVKPIFLSCGNYIDLDSSYQITMSLINQESRLPIPVRLADLETHVLRTFYQKNHVLEHHHHHH,not failed
9,MELVHGISTHFIQSKKFKTNKITVRFTAPLSLDTIAGHMLSASMLETANQMYPTSQDLRRHLASLYGTDMSTNCFRRGQSHIIELTFTYVRDEFLSRKNVLTSQILELVKETLFSPVVVDNGFDPALFEIEKKQ,failed
10,MPIDQEKLAKLQKLSANNKVGGTRRKLNKKAGSSAGANKDDTKLQSQLAKLHAVTIDNVAEANFFKDDGKVMHFNKVGVQVAAQHNTSVFYGLPQEKNLQDLFPGIISQLGPEAIQALSQLAAQMEKHEAKAPADAEKKDEAIPELVEGQTFDADVE,failed
11,MVFSMHDKGETQENPADMSGRLNTPISTVFHFFSSLFHDALRSVAQWSAWKKIAVSVVIVAIISVTFLVDVPPISVYRDWANNAGDAFVLVFCAFYILITQFPIPRTVLTLASGVLFGPVLGSVVALGSTTVSAVISLLIVRGLLGDWMAPRLTHPAVSRINTRLEQRGWLAITSLRMIAAIPFSILNYVAALTSVPVFSFAIATLIGSAPGTIVTVVLGDAVTGSGNWTAVAFTVFLAILGVLGIFLDQKMPVKPGK,failed
12,MGNNGRDILAGLSVAGLMLPEAIAYSGIAGVPPQHALYAAMAGCLVYALLGQSRFAIISPTSSSAAILAAMLAALVPQPGQKMLLVAVAVFLVGLFFLAAGTLRLGALSSIISRPVLRGFAFGLAILISLKQFPAIFGMPQAGAGTFEAILQILTNPGQWNGFSLSIGIAALILLLFARRYPQIPGSLIIIALAIPISVMFDLQQRGVDVVGPIDLSGIWGSVTTLSLDELAHVARFAPPLVLILFAESWGTIRGLSLRHGEDVDANRELKTLGIANVASAALQGMPVGAGFSAGAASEAANPRTRMASAIAAIGLAGFTFAAADWFAYIPHAALSAIIIVALLHALDPSPFLRLWRLRQDLVLALAATAGVLFLGVLNGMLAAIVLSFAVFLQRLSSPRIVMLGRLGASHDFVDVKRHPDAAEPAGMLVLRPAQPLFFGNAEPTFAEITRRILASPDINAVIISLEETFELDTTALEALLEFDASLRGRNIGIRYAPMHDAVRDVVAAGGGDDLLRRANYSVDDAVAAMDGLKEEK,failed
13,VALAATRAFYWIEAQSPDAATAFAQRVFDLYFSDRLDTASPEAVSRLGPEVGLEPEALLAGIADPALKETVRKIGEDAVARGIFGSPFFLVDDEPFWGWDRMEMMAEWIRTGGW,failed
14,EPEKLGQALTEVYAKANSFTVSSVAAPSWLHRFIIGKKGQNLAKITQQMPKVHIEFTEGEDKITLEGPTEDVSVAQEQIEGMVKDLINR,not failed
15,MIPFTIEYIFVLIGAFLLSIILTPIIRVISLKVGAVDKPNARRINKVPMPSSGGLAIFLSFVVTTLFFMPMAASRHFIEVSYFHYILPVIIGGLVVTTTGFIDDIFELRPRYKMLGIIIAAIIIWKFTHFRFDSFKIPIGGPLLEFGPILTFFLTVLWIISITNAINLIDGLDGLVSGVSIISLATMAVVSYFFLPKIDFFLTLTIVILIASIVGFFPYNYHPAIIYLGDAGALFIGFMIGVLSLQGLKNSTAVAVITPVIILGVPILDTAVAIVRRKLSGKKISEADKMHLHHRLLSMGFTHRGAVLVVYGIAIIFSLIALLLNVSSRIGGIFLLLALLLAMEIFIEGLNIWGENRTPLFNLLKFIGNSDYRQSVIAKYSDKHQK,failed
16,MALDNAKTSQKLQSLAELDGKAPSHRNLNVQTWSTAEGAKVLFVEARELPMFDLRLIFAAGSSQDGNAPGVALLTNAMLNEGVAGKDVGAIAQGFEGLGADFGNGAYKDMAVASLRSLSAVDKREPALKLFAEVVGKPTFPADSLARIKNQMLAGFEYQKQNPGKLASLELMKRLYGTHPYAHASDGDAKSIPPITLAQLKAFHAKAYAAGNVVIALVGDLSRSDAEAIAAQVSAALPKGPALAKIEQPAEPKASIGHIEFPSSQTSLMLAQLGIDRDDPDYAAVSLGNQILGGGGFGTRLMSEVREKRGLTYGVYSGFTPMQARGPFMINLQTRAEMSEGTLKLVQDVFAEYLKNGPTQKELDDAKRELAGSFPLSTASNADIVGQLGAMGFYNLPLSYLEDFMRQSQELTVEQVKAAMNKHLNVDKMVIVSAGPTVAQKPLEHHHHHH,failed
17,MKRSLRVGSVAGIGIFLHWTFLLLVAAIFAYYYVQSQSLGAALSGMGLILGVFVCVILHELGHALTARRFGVPTRSITLYPIGGLARLERIPSEPMKEFWIAIGGPAVNVVIAFALALVLLVTGGTLAPVALEAPGSHALASLMWINAVLAVFNMLPAFPMDGGRVLRALLALRWDYAQATQTAANVGQGMAVLFGLIGIMTWNPVLLFIALFVYVGAQQESKQAMYRAFTEGTPVREAMVTRFATLTVDDTLDDAVDALLAGTDHDFPVLEAGTVVGLLRRKQLIQALSEHGRDTPVAEVADADCFTTAPSAPLDEVFQQMNARSCSTVPVVDGGQLVGLLTLENVGELIMVSSALETRSHSRVPRDQLSEAPLRERPDGAASSGAPPVP,failed
18,MRSLMATRAKPNKKQNASARGKKPAWLGGIGLRQVRMFCGLVLFTYLLSHFLNHALGNISPEALHAGVLWHLEIWQFLPVAILFYGSVTVHAGLGLWALYQRRQFRWKTLEPLQLVLGLSVPLMIYSHVIVMRLGNVLYDQDRLYPQVLYNYFVASPSYRAWLMVAVMLIAWTHGCIGLYVWLRIKPAFRRAMPWLLAAAVLIPTLALLGFYQGGRTVAREAASPQWQANNLAPANLGTPEQQQTLEAIGNGFLIFYLGLIALALIARAVRAIIERRGGMVRLTYDGERSIRVPKGLTVLEATQRHNIPHASACGGRARCSTCRIRVLGDPATLPPPSPREAFVLASIGTGDDPSIRLACQLKPTQDLTFLPVFPPRNVAAARKAARAARIGEERYLVSMFVDMRGSTKLAESRLPFDTVFIVNRFLGAVSRSVIACGGQPNQFVGDGMLALFGLAETPREACRNAVRAAAAIGAAIDELNNFLGHDLPEPIRFGIGIHSGEVVVGEIGYRDHMVFTALGDSVNVASRLQDMTKSLGCETLLSDELRATAGLSEQALPTLELEIRGRTEPMLVCVVERAGDLVAVLNEDLVLA,failed
19,MSGVLLLFIIGFIGSFISGMVGIGGAIINYPMILYIPVLLGFTGYTSHEVSGITAVQVFFATFAGAWAYRKSTDMNKMLVVYMGASILIGSFIGSFSANLLDEHAVNVVYTVLATIAAMMMFVPKKNNSGAVKYNKWLASVLAFIVGGVSGIIGAGGAFLLVPIMLVILKLPLRMTIATSIAITFISSVGITTGKVITGQVVIIPALIIAVASIFAAPLGARVGKRINQKVLQYMLSILIVGTAVKMWIDMILK,failed
20,MAGLLSGLPMTSALVMLFLSLEQGAVFASMAVPGALAGLAAIQATYLFYFLVTRRVSAVAGCVLALALYGATAFLMNLSGSLALSILFTLLMVALIIVATSKQTPPAAAPYVALPRWVIPMRMLTATLLLLAITASATWLGPVVSGLLAPIPVIAWPLAVFVHVQGGRYELAAIIRGNAIGAVGVLSFYLTLRYSLLQWGALLSITTAVLLAVVVTAVLARLLAKR,failed
21,MLWFAMSSVLRVRPTKIELIRLKRRKALAEKVHRILRERLTILVNEFLVRVREAYSLRRTVNDLVFNLYNDSVLLNSVYGEYGFQYFRSITVEGLRAVIGVENIMGVKTRSAVVKHSKTIEYVYPGFDSFRDGARKLIEAIIELGRAEQALIALGREIERTKRKVNALKYIIIPRLANTIRYLNMKFEEREREEKARLKRIKSVLEKRR,failed
22,MPNNETEASMRNTLFPTLKWSLLVLMTSLLTACGFHLRGDYDIPQELSRMSLTSYDQYSTFTRMVHRQLRLNKIDLQAPAEDLPNLHLLSESTGERTLSLYQNTRAAEIELTFVASYRVTVPELGSRTFTTSVTRSYLDNPLTALAKSVERDMIEDEMRKLAASQIVRQMARLKADFARKTLDDESIEGKGITDYRVDTQEVANPVSTEGSSELEHHHHHH,not failed
